Data: paper PMC11472053, “Structural basis of DNA recognition by BEN domain proteins reveals a role for oligomerization in unmethylated DNA selection by BANP” (Nucleic Acids Research, 2024)
Changes are numbered by the printed parent chain.

Experiments:
[1] = target: T1, BANP BEN WT (human, UniProt Q8N9N5 205-325); experiment: ITC; text gives 2.5 uM; ITC: 20 mM Tris pH 7.5, 200 mM NaCl, 2 mM beta-mercaptoethanol, 20 C; EMSA: 20 mM Tris pH 7.0, 200 mM NaCl, 2 mM DTT, 4 C, 1.2% agarose in TAE; details: protein: recombinant; tags: His-SUMO or His-MBP, cleaved; chain copies: 2; blunt, self-complementary
T1 sequence: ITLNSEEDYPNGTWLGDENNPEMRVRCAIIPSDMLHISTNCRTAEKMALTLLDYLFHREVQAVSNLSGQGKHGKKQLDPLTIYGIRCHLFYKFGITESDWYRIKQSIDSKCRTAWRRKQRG

[2] = target: T2, BANP CC-BEN (ΔDBD) (human, UniProt Q8N9N5 1-360); experiment: ITC; ITC: 20 mM Tris pH 7.5, 200 mM NaCl, 2 mM beta-mercaptoethanol, 20 C; EMSA: 20 mM Tris pH 7.0, 200 mM NaCl, 2 mM DTT, 4 C, 1.2% agarose in TAE; details: protein: recombinant; tags: His-SUMO or His-MBP, cleaved; blunt, self-complementary
T2 sequence: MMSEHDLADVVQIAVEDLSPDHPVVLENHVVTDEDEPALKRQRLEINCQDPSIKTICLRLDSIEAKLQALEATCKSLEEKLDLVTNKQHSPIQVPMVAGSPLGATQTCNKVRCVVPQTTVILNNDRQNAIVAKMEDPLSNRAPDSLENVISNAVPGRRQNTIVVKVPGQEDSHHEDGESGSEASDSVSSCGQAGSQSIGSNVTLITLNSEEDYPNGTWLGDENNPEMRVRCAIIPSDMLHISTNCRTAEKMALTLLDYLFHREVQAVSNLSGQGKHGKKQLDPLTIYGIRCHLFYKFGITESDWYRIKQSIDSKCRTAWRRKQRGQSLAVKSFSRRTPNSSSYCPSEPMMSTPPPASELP

[3] = target: T3, BANP BEN S310A (human, UniProt Q8N9N5 205-325, S310A); experiment: as above; details: protein: recombinant; tags: His-SUMO or His-MBP, cleaved; chain copies: 2; blunt, self-complementary
T3 sequence: T1 sequence with S106A

[4] = target: T4, BANP full-length WT (human, UniProt Q8N9N5 1-519); experiment: as above; details: protein: recombinant; tags: His-SUMO or His-MBP, cleaved; chain copies: 4; blunt, self-complementary
T4 sequence: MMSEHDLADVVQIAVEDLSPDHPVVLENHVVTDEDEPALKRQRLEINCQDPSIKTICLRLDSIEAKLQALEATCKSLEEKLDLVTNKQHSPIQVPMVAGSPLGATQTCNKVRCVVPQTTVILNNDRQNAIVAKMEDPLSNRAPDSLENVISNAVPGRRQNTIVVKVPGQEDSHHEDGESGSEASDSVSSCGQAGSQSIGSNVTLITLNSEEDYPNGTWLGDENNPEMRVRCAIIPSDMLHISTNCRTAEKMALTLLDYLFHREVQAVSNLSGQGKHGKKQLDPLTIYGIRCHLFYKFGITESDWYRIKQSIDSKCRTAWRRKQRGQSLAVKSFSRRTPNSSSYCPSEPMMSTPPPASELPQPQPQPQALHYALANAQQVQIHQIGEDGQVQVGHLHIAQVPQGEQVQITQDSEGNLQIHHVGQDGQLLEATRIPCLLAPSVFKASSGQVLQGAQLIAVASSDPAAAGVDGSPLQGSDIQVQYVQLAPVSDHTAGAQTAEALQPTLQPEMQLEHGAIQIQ

[5] = target: T5, BANP BEN S313A (human, UniProt Q8N9N5 205-325, S313A); experiment: as above; details: protein: recombinant; tags: His-SUMO or His-MBP, cleaved; chain copies: 2; blunt, self-complementary
T5 sequence: T1 sequence with S109A

[6] = target: T6, BANP BEN R316A (human, UniProt Q8N9N5 205-325, R316A); experiment: as above; details: protein: recombinant; tags: His-SUMO or His-MBP, cleaved; chain copies: 2; blunt, self-complementary
T6 sequence: T1 sequence with R112A

[7] = target: T7, BANP DBD (human, UniProt Q8N9N5 361-519); experiment: EMSA; ITC: 20 mM Tris pH 7.5, 200 mM NaCl, 2 mM beta-mercaptoethanol, 20 C; EMSA: 20 mM Tris pH 7.0, 200 mM NaCl, 2 mM DTT, 4 C, 1.2% agarose in TAE; details: protein: recombinant; tags: His-SUMO or His-MBP, cleaved; blunt, self-complementary
T7 sequence: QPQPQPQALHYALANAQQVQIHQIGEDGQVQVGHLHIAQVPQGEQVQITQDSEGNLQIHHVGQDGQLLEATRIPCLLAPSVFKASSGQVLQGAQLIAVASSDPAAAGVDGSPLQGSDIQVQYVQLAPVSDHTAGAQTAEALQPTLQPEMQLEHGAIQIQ

B1: 12-CGCG (dsDNA)
DNA 1: ATCTCGCGAGAT
DNA 2: ATCTCGCGAGAT
Kd [1]: 2600 ± 400 nM | Kd [2]: 2900 ± 700 nM | Kd [3]: 12.8 ± 0.9 µM | Kd [4]: 3.4 ± 0.6 µM | Kd [5]: 7.9 ± 1.1 µM | Kd [6]: 16.8 ± 1.6 µM | binding result [7]: no binding
